Target: Haemagglutinin (HA) of influenza A/Delaware/55/2019 (H1N1), from Flucelvax monovalent drug substance (Monobulk) (influenza A virus A/Delaware/55/2019 (H1N1))
Assay: SEC

“Haemagglutinin (HA) of influenza A/Delaware/55/2019 (H1N1), from Flucelvax monovalent drug substance (Monobulk) (natural protein)” gave a stoichiometry N of 3.

From paper PMC10073703
